The target in test [1] is T1, cynomolgus monkey FcγRIIIaS extracellular domain, C-terminal His-tag (cynomolgus monkey, UniProt A3RFZ7 21-206 (rhesus entry)).
T1 construct: also called cyno FcγRIIIaS; cynoFcγRIIIaS; not shown: His-tag added to C-terminus
Briefly: SPR (BIACORE), antibody captured, FcγR analyte.

For test [2], the target named is T2, human FcγRIIaH extracellular domain, C-terminal His-tag (human, UniProt P12318 34-217).
T2 construct: also called human FcγRIIa (type H); FcgRIIaH; not shown: His-tag added to C-terminus
T2 sequence: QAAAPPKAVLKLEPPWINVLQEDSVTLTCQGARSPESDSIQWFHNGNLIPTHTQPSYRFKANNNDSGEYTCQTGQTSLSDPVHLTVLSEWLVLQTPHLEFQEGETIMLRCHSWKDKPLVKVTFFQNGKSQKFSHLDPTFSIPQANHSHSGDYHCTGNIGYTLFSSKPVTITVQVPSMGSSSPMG
Briefly: SPR (BIACORE), antibody captured, FcγR analyte. On the technique in general: In SPR one partner is held on a chip, and binding of the other changes the refractive index at the surface.

As a reminder, the Kd is the equilibrium constant for the complex coming apart.

T1 sequence (A3RFZ7 21-206): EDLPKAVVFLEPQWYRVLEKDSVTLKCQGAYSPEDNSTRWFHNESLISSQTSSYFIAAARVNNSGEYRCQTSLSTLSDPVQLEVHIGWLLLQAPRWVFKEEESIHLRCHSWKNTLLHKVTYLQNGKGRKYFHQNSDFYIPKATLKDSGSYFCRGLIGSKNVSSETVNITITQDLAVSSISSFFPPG

B1: MS_M103205H795-SG1/M103202L889-SK1 (antibody, human IgG1, kappa)
heavy: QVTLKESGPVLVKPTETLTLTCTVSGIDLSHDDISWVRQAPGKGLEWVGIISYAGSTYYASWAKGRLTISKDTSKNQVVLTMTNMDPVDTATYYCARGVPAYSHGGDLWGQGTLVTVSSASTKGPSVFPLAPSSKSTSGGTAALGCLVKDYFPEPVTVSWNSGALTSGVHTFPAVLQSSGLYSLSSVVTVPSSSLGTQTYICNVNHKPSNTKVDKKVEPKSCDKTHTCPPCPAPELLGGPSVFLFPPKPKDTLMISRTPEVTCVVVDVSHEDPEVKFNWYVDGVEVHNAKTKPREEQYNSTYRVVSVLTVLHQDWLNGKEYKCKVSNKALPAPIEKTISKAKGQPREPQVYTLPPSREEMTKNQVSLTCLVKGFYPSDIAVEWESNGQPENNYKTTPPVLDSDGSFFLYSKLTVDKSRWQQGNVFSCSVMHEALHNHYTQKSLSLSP
light: DIVMTQSPATLSLSPGERATLSCTSSQSVYHANWLSWFQQKPGQPPKLLIYWASTLAYGVPSRFSGSGSGTDFTLTISSLQPEDAATYYCAGGYGGGRYAFGQGTKVEIKRTVAAPSVFIFPPSDEQLKSGTASVVCLLNNFYPREAKVQWKVDNALQSGNSQESVTEQDSKDSTYSLSSTLTLSKADYEKHKVYACEVTHQGLSSPVTKSFNRGEC
notes: Parent antibody with SG1 human heavy chain constant region; also called MS1032LO06-SG1
Consider B1, for which the Kd in test [1] worked out at 280 nM; in test [2], 890 nM.
